Results: the supplement of paper PMC10724198
± gives the standard deviation of the averaged measurements.

tested on: Saccharomyces cerevisiae; assay: protein stability index of tFT-peptide fusion (C-terminal peptide) (PSI (0-1 scale)); higher = more stable (slower turnover); conditions: genetic background: wild type; temperature: 30 C
Protocol: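 Multiplexed protein stability (MPS) profiling in S. cerevisiae. Random 12-aa peptides (tFT-X12 library) are fused to the C-terminus of a sfGFP-mCherry tandem fluorescent timer, after mCherry and a GGGS linker. Cells are FACS-sorted into 8 mCherry/sfGFP bins and deep-sequenced. The protein stability index (PSI) is the read-weighted bin average, scaled from 0 (unstable) to 1 (stable). Only peptides with >10 reads are reported; cells were grown at 30 °C in SC-His with glucose.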
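Further: PSI is a weighted mean of sequencing reads over stability bins, variants kept only with over 10 reads, mCherry proximal and sfGFP distal, peptide attached via GGGS linker.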

Point of comparison: APIQPGEDKLKR, protein stability index 0.64 ± 0.0099. Against it:
- AAAPWSVSGCPG — higher, 0.6611 ± 0.0049
- AACLCATYPVGT — higher, 0.752 ± 0.07
- AAGTVFCRITWD — higher, 0.678 ± 0.022
- AAIFDSIRKDLR — higher, 0.69 ± 0.039
- AAISGELRVWVL — within error, 0.642 ± 0.0081
- AAKQIPRYRTTG — within error, 0.716 ± 0.078
- AALRLVEDKSTW — higher, 0.71 ± 0.059
- AAPAGAAKRWGT — within error, 0.641 ± 0.035
- AAPRGRGRFAAA — higher, 0.699 ± 0.024
- AARFRAVPVFGN — within error, 0.661 ± 0.037
- AARPLGLPSASG — higher, 0.7113 ± 0.0062
- AARQRWSLEFLD — within error, 0.65 ± 0.1
- AASPPPRISAWL — higher, 0.746 ± 0.02
- AATDWFHLPFPP — within error, 0.682 ± 0.15
- ACLCLPGVRVGG — within error, 0.625 ± 0.038
- ACPDARNAGTQR — higher, 0.708 ± 0.022
- ACSPPPLLPPPL — higher, 0.737 ± 0.016
- ACSSSLPPSSPP — higher, 0.671 ± 0.0078
- ACVPGGFVWGGV — higher, 0.754 ± 0.065
- ACYEYRPSPASC — higher, 0.728 ± 0.053
- ADENFKVRKRRS — within error, 0.703 ± 0.057
- ADQVGRAVIIAS — within error, 0.644 ± 0.0074
- ADRVHLNGLEML — higher, 0.747 ± 0.0093
- AEEWPVRAGGRG — within error, 0.609 ± 0.056
- AEGCHIRVHWGV — higher, 0.7265 ± 0.0066
- AEGYRGECSGCM — within error, 0.622 ± 0.052
- AEVRGTVGRLVG — within error, 0.632 ± 0.011
- AFAFSVLTGWGV — within error, 0.638 ± 0.072
- AFGAPVVRHATF — higher, 0.723 ± 0.02
- AFGFCKVLSSGC — higher, 0.68 ± 0.013
- AFLVGYSGVGYV — higher, 0.687 ± 0.032
- AFPLPPPPPPKP — higher, 0.708 ± 0.012
- AFPPDVPPLTPL — within error, 0.72 ± 0.1
- AFRGFLSVNFNL — higher, 0.7338 ± 0.005
- AFSYRAVIALLP — higher, 0.683 ± 0.018
- AFVLGSWSWWRA — higher, 0.715 ± 0.015
- AGAGEHCDGVVG — within error, 0.641 ± 0.0096
- AGAGGGGWWGGV — higher, 0.76 ± 0.054
- AGAGGGQGKGRE — within error, 0.639 ± 0.019
- AGALYGNPCPPL — within error, 0.657 ± 0.019
- AGARLEWVVAGR — higher, 0.7539 ± 0.0045
- AGCRFRWHTVDC — within error, 0.648 ± 0.073
- AGGAGWGLVLGC — within error, 0.647 ± 0.082
- AGGGGGDAGRGV — higher, 0.744 ± 0.078
- AGGGRRRLDGGR — higher, 0.703 ± 0.0086
- AGGRGGGLGLWC — within error, 0.724 ± 0.1
- AGIDYLSVGGSL — higher, 0.728 ± 0.074
- AGLDRFLVIWGI — lower, 0.6106 ± 0.0061
- AGLLGVVGGRFG — higher, 0.6993 ± 0.00076
- AGLRMALGVGIP — higher, 0.6975 ± 0.0065
- AGRGGTGIGERV — within error, 0.63 ± 0.072
- AGRTGVLGGHVP — higher, 0.691 ± 0.0095
- AGRVGRRGPPNR — within error, 0.629 ± 0.038
- AGSLPLLYPSLR — higher, 0.745 ± 0.015
- AGSSGGGAWWGE — within error, 0.681 ± 0.12
- AGSSLVVAWHGV — within error, 0.673 ± 0.028
- AGTALVFNGSKA — higher, 0.7209 ± 0.0045
- AGVVARTRRDGG — higher, 0.708 ± 0.035
- AGVVGRMGWGAT — higher, 0.707 ± 0.041
- AHEAHPITPRGP — higher, 0.695 ± 0.042
- AHFQDSTSPATI — higher, 0.722 ± 0.017
- AHGASGNRSHNQ — within error, 0.644 ± 0.037
- AHPPPPPPPPAP — within error, 0.677 ± 0.14
- AHPPPSPPFPRH — within error, 0.658 ± 0.015
- AHQEAIIPTIGK — within error, 0.694 ± 0.087
- AHVYGCGGGGMT — higher, 0.734 ± 0.055
- AHWYPAGQCSRL — higher, 0.804 ± 0.13
- AICSVRSGITLS — higher, 0.6529 ± 0.0019
- AIGPLTCFFAFL — within error, 0.695 ± 0.079
- AIILGPPIGWTK — higher, 0.757 ± 0.026
- AILGYFSLVEPP — lower, 0.542 ± 0.013
- AIPRPPRVWGHL — higher, 0.727 ± 0.016
- AISVISNLTKLE — within error, 0.617 ± 0.034
- AIVASAPSLGRS — within error, 0.658 ± 0.038
- AKDSSPTFTSPH — within error, 0.673 ± 0.032
- AKDSTAVVRLGT — higher, 0.703 ± 0.029
- AKKTKSRANSDL — within error, 0.701 ± 0.085
- AKRKEAGKPHAN — within error, 0.695 ± 0.085
- AKRQRQQKKDKG — within error, 0.626 ± 0.014
- AKSSLGSSYKTL — higher, 0.761 ± 0.064
- AKYPLTRCLFGS — higher, 0.705 ± 0.033
- ALASPPPTPSLV — within error, 0.638 ± 0.0068
- ALEFRDASLPVQ — within error, 0.682 ± 0.068
- ALFVVLSGLSLR — within error, 0.616 ± 0.017
- ALGGKDQSRSSS — higher, 0.699 ± 0.019
- ALLGGQLVWNSK — within error, 0.667 ± 0.14
- ALLLPFPPPPPP — lower, 0.559 ± 0.03
- ALLLSHFLFFYA — lower, 0.524 ± 0.028
- ALLSRFFPAFFF — lower, 0.604 ± 0.021
- ALPLPAPSSIPS — higher, 0.712 ± 0.029
- ALPNPLLPPAPP — within error, 0.612 ± 0.026
- ALPPGSRPLIPS — within error, 0.628 ± 0.024
- ALPRFPATSFPT — higher, 0.695 ± 0.04
- ALPRPPSPFSPL — within error, 0.666 ± 0.078
- ALRGRTTPPSHT — within error, 0.726 ± 0.086
- ALSEAITLPVNP — within error, 0.674 ± 0.085
- ALVPPDPTPPPP — higher, 0.699 ± 0.047
- ALVQAAPPGRTP — higher, 0.6864 ± 0.0049
- ALVTLRRVVDLV — within error, 0.601 ± 0.08
- AMGILSHLTACW — within error, 0.659 ± 0.048
- ANKIRMKYMRTG — lower, 0.6139 ± 0.0027
- ANKKKKKIKTKH — within error, 0.757 ± 0.12
- ANSRPASSTRLR — higher, 0.857 ± 0.2
- APAWSFFGLDKS — higher, 0.702 ± 0.015
- APEGGEAQVLPA — higher, 0.6842 ± 0.0022
- APFAPRRPLPPP — within error, 0.612 ± 0.094
- APFRHKANEPGE — higher, 0.706 ± 0.037
- APIQPRAPPRAP — higher, 0.669 ± 0.017
- APIRRPTCLSEV — higher, 0.708 ± 0.043
- APIWRSLRGLAI — within error, 0.555 ± 0.18
- APLTVLTARSLF — higher, 0.763 ± 0.055
- APNPPPPPPPLP — higher, 0.729 ± 0.03
- APPFNPSRLSRP — higher, 0.725 ± 0.066
- APPPLPPPTLPT — higher, 0.757 ± 0.041
- APPPNPPRPSSR — higher, 0.754 ± 0.032
- APPPPAVPHYRP — higher, 0.667 ± 0.012
- APPPPHPRTPKP — within error, 0.693 ± 0.069
- APPPPPFPPPCA — within error, 0.694 ± 0.049
- APPPPPPAPPLP — lower, 0.591 ± 0.028
- APPPPPPFPPLP — within error, 0.684 ± 0.093
- APPPPPRISAWL — higher, 0.745 ± 0.012
- APPPPPVHPSSP — higher, 0.734 ± 0.011
- APPPPTPPPPPA — higher, 0.7 ± 0.019
- APPSPTSPPTPP — within error, 0.642 ± 0.1
- APRKTPPHPPPS — within error, 0.689 ± 0.06
- APRPSNRRPRPR — within error, 0.629 ± 0.025
- APRRSPGWGPEG — within error, 0.731 ± 0.083
- APSEPVIYLPRV — within error, 0.746 ± 0.14
- APSINVQVYWSG — within error, 0.649 ± 0.041
- APSPPFLPLTLT — within error, 0.656 ± 0.035
- APSPPTRYLPLF — higher, 0.684 ± 0.019
- APSSPPPPTLPP — within error, 0.716 ± 0.17
- APVGYNTVASAC — within error, 0.685 ± 0.042
- APVVSFTAPLAF — within error, 0.619 ± 0.1
- AQERDGAIKKTH — higher, 0.7 ± 0.033
- AQLPRSFAPPLR — higher, 0.868 ± 0.19
- AQRRHGRSIRRD — higher, 0.787 ± 0.019
- AQSYPHPPPPPP — within error, 0.644 ± 0.041
- ARACPLCFVMMF — lower, 0.559 ± 0.013
- ARCGNSAPWHVG — higher, 0.693 ± 0.019
- ARFYPPLPTDSL — higher, 0.708 ± 0.056
- ARGAPVSGRAGG — higher, 0.6574 ± 0.005
- ARGDDGSTCSRG — within error, 0.697 ± 0.059
- ARGGGPERIHPE — higher, 0.66362 ± 0.00048
- ARGIVAHKVTQP — within error, 0.65 ± 0.11
- ARHESRPTHSAQ — higher, 0.6924 ± 0.0046
- ARNMGLFVFNLR — higher, 0.6783 ± 0.0043
- ARPAPHRSRRPS — higher, 0.68 ± 0.013
- ARPAPPLPAIPL — within error, 0.663 ± 0.043
- ARPPRASRISSL — higher, 0.81 ± 0.044
- ARRGATRGHAHV — within error, 0.684 ± 0.046
- ARSAGITSPSKD — higher, 0.788 ± 0.12
- ARSPLTIGLYPF — higher, 0.6915 ± 0.0016
- ARSSHVLQRSKV — within error, 0.634 ± 0.018
